Data on 8 molecules can be found in patent EP2386565A2 (Cambridge Enterprise Ltd., dated 2000).

Usually Kd stands for the free concentration of one partner at which half of the binding sites on the other are occupied at equilibrium, for simple one-to-one binding. Read a high Kd as a looser complex.

No end group written: not given here. *: point of attachment. Biotin = O=C1N[C@H]2[C@H](CS[C@H]2CCCCC(=O)*)N1 Some results are limits rather than exact numbers.

For one assay, the target named is T1, CCR2 (human, UniProt P41597 1-374).
T1 construct: whole, on cells
As to the kind of experiment: biotin-labeled peptide on receptor-expressing cell lines, 125I-streptavidin.

In another assay the target is T2, CXCR1 (human, UniProt P25024 1-350).
T2 construct: whole, on cells
T2 sequence (looked up): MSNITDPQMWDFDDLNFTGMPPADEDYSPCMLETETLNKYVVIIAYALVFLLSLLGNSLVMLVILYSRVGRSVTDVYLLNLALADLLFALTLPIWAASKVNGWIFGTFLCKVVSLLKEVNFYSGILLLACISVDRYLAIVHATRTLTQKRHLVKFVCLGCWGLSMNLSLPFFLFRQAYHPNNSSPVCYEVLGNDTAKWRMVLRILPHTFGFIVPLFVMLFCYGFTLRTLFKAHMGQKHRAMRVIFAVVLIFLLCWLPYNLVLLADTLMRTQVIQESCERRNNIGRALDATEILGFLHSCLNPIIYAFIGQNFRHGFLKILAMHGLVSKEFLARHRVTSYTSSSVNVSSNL
Described as above.

For another assay, the target named is T3, CCR5 (human, UniProt P51681 1-352).
T3 construct: whole, on cells
The description is as above.

The target in another assay is T4, CCR1 (human, UniProt P32246 1-355).
T4 construct: whole, on cells
T4 sequence (looked up): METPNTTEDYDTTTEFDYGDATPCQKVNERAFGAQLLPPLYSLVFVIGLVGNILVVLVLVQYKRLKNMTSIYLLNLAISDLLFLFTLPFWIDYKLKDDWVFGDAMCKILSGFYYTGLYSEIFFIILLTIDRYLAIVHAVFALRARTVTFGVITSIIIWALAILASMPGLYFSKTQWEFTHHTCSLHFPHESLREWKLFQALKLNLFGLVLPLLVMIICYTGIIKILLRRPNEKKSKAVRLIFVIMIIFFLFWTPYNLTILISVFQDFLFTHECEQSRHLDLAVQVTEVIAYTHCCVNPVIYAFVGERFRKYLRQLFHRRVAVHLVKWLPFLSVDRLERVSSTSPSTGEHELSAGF
The assay is described as above.

Another assay addresses T5, CCR3 (human, UniProt P51677 1-355).
T5 construct: whole, on cells
T5 sequence (looked up): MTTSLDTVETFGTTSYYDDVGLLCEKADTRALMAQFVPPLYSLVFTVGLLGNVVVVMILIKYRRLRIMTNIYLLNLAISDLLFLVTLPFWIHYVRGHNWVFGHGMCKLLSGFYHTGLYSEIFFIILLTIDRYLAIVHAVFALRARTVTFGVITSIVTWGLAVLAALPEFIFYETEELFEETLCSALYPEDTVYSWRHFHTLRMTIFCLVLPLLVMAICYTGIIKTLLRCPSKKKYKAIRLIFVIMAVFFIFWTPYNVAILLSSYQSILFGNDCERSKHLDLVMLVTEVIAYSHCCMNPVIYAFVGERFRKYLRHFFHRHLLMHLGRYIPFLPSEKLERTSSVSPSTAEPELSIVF
The assay is described as above.

A further assay addresses T6, CCR4 (human, UniProt P51679 1-360).
T6 construct: whole, on cells
T6 sequence (looked up): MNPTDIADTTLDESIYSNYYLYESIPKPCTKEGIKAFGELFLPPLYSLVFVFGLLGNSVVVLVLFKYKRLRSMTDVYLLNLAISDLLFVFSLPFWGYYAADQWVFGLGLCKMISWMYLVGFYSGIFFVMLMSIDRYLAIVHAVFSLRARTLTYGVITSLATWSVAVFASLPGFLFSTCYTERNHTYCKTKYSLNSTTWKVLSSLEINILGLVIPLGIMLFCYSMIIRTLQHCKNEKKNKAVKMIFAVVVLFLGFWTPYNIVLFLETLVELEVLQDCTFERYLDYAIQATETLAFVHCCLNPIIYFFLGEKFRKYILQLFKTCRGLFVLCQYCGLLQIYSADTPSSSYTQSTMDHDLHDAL
The description is as above.

The target of the next assay is T7, CXCR4 (human, UniProt P61073 1-352).
T7 construct: whole, on cells
The assay is described as above.

In another assay the target is T8, CXCR2 (human, UniProt P25025 1-360).
T8 construct: whole, on cells
T8 sequence (looked up): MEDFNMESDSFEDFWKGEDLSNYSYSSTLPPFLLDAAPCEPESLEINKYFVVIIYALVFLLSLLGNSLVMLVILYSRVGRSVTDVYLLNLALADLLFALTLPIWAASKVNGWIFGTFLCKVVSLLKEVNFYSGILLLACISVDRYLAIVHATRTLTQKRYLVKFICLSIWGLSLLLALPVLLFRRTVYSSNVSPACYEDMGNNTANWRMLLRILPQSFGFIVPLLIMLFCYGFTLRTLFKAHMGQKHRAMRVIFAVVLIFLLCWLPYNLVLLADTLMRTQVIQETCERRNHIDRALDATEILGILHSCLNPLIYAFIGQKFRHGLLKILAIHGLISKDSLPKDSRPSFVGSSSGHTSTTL
The description is as above.

Assay [1] concerns the target T9, Duffy Antigen Receptor for Chemokines (DARC) (human, UniProt Q16570 1-336).
T9 construct: whole, on cells
T9 sequence (looked up): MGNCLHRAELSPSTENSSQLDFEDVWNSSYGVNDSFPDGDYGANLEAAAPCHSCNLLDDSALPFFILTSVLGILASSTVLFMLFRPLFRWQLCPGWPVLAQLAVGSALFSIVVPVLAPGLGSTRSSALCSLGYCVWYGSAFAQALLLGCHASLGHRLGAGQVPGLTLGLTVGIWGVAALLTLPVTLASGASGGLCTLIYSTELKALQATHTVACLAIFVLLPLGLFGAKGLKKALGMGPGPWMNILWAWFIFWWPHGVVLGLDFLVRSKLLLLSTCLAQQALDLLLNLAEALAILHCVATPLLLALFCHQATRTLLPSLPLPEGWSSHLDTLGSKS
In words: ka for binding to red blood cells divided by ka for binding to THP-1 cells.

Assay [2] addresses T9, Duffy Antigen Receptor for Chemokines …. In words: DARC binding on red blood cells; printed as Duffy affinity.
Assay [3] has the same target. In words: estimated ka for binding to red blood cells divided by average inhibitory ED50 in THP-1 migration.
Assay [4] shares this target. As to the kind of experiment: Table 18, DARC binding; ns = not significantly different from control.
For assay [5] the target is unchanged. In words: Duffy binding; kind of constant not named.
Assay [6] has the same target. In words: competition binding analysis using red blood cells; given as affinity.

T7 sequence (P61073 whole entry): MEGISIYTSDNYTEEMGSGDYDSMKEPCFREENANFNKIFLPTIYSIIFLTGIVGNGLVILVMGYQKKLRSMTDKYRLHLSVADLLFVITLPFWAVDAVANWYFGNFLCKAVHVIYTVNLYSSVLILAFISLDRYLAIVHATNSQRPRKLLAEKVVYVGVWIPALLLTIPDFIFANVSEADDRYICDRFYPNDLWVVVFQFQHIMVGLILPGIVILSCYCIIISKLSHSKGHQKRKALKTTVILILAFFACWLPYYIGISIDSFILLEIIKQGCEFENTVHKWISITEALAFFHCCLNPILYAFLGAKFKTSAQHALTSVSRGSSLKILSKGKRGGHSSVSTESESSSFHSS
T1 sequence (P41597 whole entry): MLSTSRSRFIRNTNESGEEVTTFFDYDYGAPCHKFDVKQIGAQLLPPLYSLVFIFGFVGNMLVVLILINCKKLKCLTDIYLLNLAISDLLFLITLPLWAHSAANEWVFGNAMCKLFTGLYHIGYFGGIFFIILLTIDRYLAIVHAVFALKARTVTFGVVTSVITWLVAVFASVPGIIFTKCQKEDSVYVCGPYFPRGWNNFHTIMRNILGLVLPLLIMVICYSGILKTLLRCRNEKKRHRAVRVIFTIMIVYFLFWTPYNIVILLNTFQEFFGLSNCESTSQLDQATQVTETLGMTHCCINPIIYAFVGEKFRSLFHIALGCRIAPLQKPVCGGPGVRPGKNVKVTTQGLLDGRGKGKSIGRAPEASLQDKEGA
T3 sequence (P51681 whole entry): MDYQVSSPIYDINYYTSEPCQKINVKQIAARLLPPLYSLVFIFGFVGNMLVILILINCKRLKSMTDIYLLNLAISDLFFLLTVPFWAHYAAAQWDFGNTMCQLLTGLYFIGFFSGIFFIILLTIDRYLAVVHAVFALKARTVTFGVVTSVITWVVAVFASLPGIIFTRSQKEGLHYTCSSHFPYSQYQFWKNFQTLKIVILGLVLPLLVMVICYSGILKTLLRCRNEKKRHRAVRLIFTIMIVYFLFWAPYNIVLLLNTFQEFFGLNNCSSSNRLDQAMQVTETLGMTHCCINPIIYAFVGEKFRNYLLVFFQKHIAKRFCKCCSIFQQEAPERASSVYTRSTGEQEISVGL

B1: N-terminal biotin conjugate of the sequence n'-CLDPKQKWIQC-c' (peptide)
peptide: Biotin-CLDPKQKWIQC
modifications: cysteine pairing not given here
notes: also called biotinylated peptide
In the case of B1, the Kd with CCR2, with CXCR1, with CCR5, with CCR1, in the assay with CCR3 and with CCR4 was over 10 µM each time. Besides, the Kd with CXCR4 and with CXCR2 was over 10 µM each time.

B2: Pep2(1-14)[MIP1α] (peptide)
peptide: DYFETSSQCSKPGV
notes: Called peptide 2(1-15)[MIP1α]; also called Pep2[MIP1α]; peptide 2(1-15)[MIP1-α]
Turning to B2, the Duffy selectivity in assay [1] was over 100 ratio.

B3: Peptide 2(1-9)[MCP-1] (peptide)
peptide: SYRRITSSK
In turn, B3 came in with a Kd in [2] of about 50 µM.

B4: Leu4Ile11peptide 3(1-12)[MCP-1] (peptide)
peptide: EICLDPKQKWIQ
notes: also called Leu4Ile11pep3; Leu4Ile11peptide 3[MCP-1]
Take B4: in [3], the Duffy selectivity is 37.8 ratio.

B5: Pep2(1-16)[IL8] (peptide)
peptide: ELRVIESGPHCANTEI
notes: also called Pep2[IL8]
Consider B5, for which the Duffy selectivity in assay [1] was under 1 ratio.

B6: DYFETSSQC (peptide)
peptide: DYFETSSQC
B6: in assay [4], the binding result is given as “no binding”.

B7: CSKPGV (peptide)
peptide: CSKPGV
In the case of B7, in [4], the binding result is listed as “no binding”.

B8: Peptide 2(1-15)[MCP-1] (peptide)
peptide: SYRRITSSKCPKEAV
notes: also called Pep2[MCP1]; Pep2(1-15)[MCP1]
Regarding B8, the Kd was 100 µM in [5] and under 0.5 µM in assay [6]. Moreover, the Duffy selectivity in assay [1] is 0.18 ratio.
